Experiment [1] has as its target HLA-B*40:02. Nature of the experiment: IEDB peptide-MHC binding, purified MHC/competitive/radioactivity; filed as Kd, often an IC50 or EC50 that approximates it; ≥ and ≤ were set here for values at or beyond the usual limits of such assays. Conditions: source organism: Plasmodium falciparum.
In experiment [2] the target is HLA-B*40:01. Nature of the experiment: IEDB peptide-MHC binding, purified MHC/competitive/radioactivity; ≥ and ≤ were set here for values at or beyond the usual limits of such assays.
Experiment [3] deals with HLA-B*45:01. Described as above.
Another experiment concerns the target HLA-B*44:03. The description is as above.
For another experiment, the target named is HLA-B*44:02. Described as above.
In experiment [4] the target is HLA-B*18:01. Described as above.
In experiment [5] the target is HLA-B*45:01. Briefly: IEDB peptide-MHC binding, purified MHC/competitive/radioactivity; filed as Kd, often an IC50 or EC50 that approximates it; ≥ and ≤ were set here for values at or beyond the usual limits of such assays.
The target in experiment [6] is HLA-B*40:02. Nature of the experiment: IEDB peptide-MHC binding, purified MHC/competitive/radioactivity; ≥ and ≤ were set here for values at or beyond the usual limits of such assays.
For experiment [7], the target named is HLA-B*40:01. Briefly: IEDB peptide-MHC binding, purified MHC/competitive/radioactivity; filed as Kd, often an IC50 or EC50 that approximates it; ≥ and ≤ were set here for values at or beyond the usual limits of such assays. The note with it: source organism: Hepatitis B virus.
For experiment [8], the target named is HLA-B*18:01. The experiment is described as above. The note with it: source organism: Hepatitis B virus.
Where [9] appears, read: source organism: Plasmodium falciparum.
The mark [10] stands for this setting: source organism: Human immunodeficiency virus 1.
[11] abbreviates: source organism: Hepatitis B virus.
[12] abbreviates: source organism: Hepatitis C virus (isolate HCV-K3a/650).

A word on the Kd: it is the constant that tells how readily two partners part at equilibrium. As usually defined, the IC50 is the concentration that inhibits the measured activity by half.

Where only a bound is given, the exact number is not on record here.

For the sequence NELNYDNAGI, the Kd in the experiment with HLA-B*40:02 [1] was at least 23600 nM. Also, the IC50 was 4130 nM in the experiment with HLA-B*40:01 [2] (setting [9]); 457 nM with HLA-B*45:01 [3] (setting [9]); 72 nM in the experiment with HLA-B*44:03 (setting [9]); 105 nM in the experiment with HLA-B*44:02 (setting [9]); 4610 nM with HLA-B*18:01 [4] (setting [9]).
Take QEILDLWVY: the Kd with HLA-B*45:01 [5] (setting [10]) stood at 6260 nM. For the same sequence, the IC50 with HLA-B*40:02 [6] (setting [10]) stood at 4520 nM; in the experiment with HLA-B*40:01 [2] (setting [10]) it was 739 nM; in the experiment with HLA-B*44:03 (setting [10]), 172 nM; with HLA-B*44:02 (setting [10]), 264 nM; with HLA-B*18:01 [4] (setting [10]) it was 52 nM.
Take RETVLEYLV: the IC50 with HLA-B*40:02 [6] (setting [11]) amounted to 36 nM; with HLA-B*40:01 [2] (setting [11]), 412 nM; in the experiment with HLA-B*45:01 [3] (setting [11]) it was 205 nM; with HLA-B*44:03 (setting [11]), 4830 nM.
On to AELLAACF, for which the IC50 came to 93 nM in the experiment with HLA-B*40:02 [6] (setting [11]); 734 nM with HLA-B*40:01 [2] (setting [11]); 247 nM in the experiment with HLA-B*45:01 [3] (setting [11]); 27 nM in the experiment with HLA-B*44:03 (setting [11]); 9.3 nM with HLA-B*44:02 (setting [11]).
Take GEIPFYGKAI: in the experiment with HLA-B*45:01 [5] (setting [12]), the Kd is 5400 nM. Further, the half-maximal inhibitory concentration (IC50) was 87 nM with HLA-B*40:02 [6] (setting [12]), 146 nM with HLA-B*40:01 [2] (setting [12]) and 113 nM with HLA-B*44:03 (setting [12]).
On to IEAEVIPA, for which the Kd with HLA-B*45:01 [5] (setting [10]) came out at 347 nM. Besides, the half-inhibitory concentration (IC50) is 62 nM with HLA-B*40:02 [6] (setting [10]); 5950 nM in the experiment with HLA-B*40:01 [2] (setting [10]); 6400 nM in the experiment with HLA-B*44:03 (setting [10]); 859 nM in the experiment with HLA-B*44:02 (setting [10]); 61 nM with HLA-B*18:01 [4] (setting [10]).
Take VELLSFLPSDF: the values for the dissociation constant Kd in the experiment with HLA-B*40:01 [7] and in the experiment with HLA-B*45:01 [5] (setting [11]) were 5560 nM and 10400 nM, respectively. Further, the IC50 with HLA-B*40:02 [6] (setting [11]) was 480 nM; with HLA-B*44:03 (setting [11]), 412 nM; with HLA-B*44:02 (setting [11]), 299 nM; with HLA-B*18:01 [4] (setting [11]) it was 414 nM.
AENLYVTVF: the IC50 with HLA-B*40:02 [6] (setting [10]) came to 3.1 nM; with HLA-B*40:01 [2] (setting [10]), 17 nM; with HLA-B*45:01 [3] (setting [10]), 69 nM; in the experiment with HLA-B*44:03 (setting [10]) it was 47 nM; in the experiment with HLA-B*44:02 (setting [10]), 39 nM.
For the sequence AENLWVTVY, the IC50 worked out at 90 nM in the experiment with HLA-B*40:02 [6] (setting [10]); 3370 nM with HLA-B*40:01 [2] (setting [10]); 68 nM with HLA-B*45:01 [3] (setting [10]); 160 nM in the experiment with HLA-B*44:03 (setting [10]); 66 nM in the experiment with HLA-B*44:02 (setting [10]); 51 nM in the experiment with HLA-B*18:01 [4] (setting [10]).
Regarding RENANQLVV, the IC50 with HLA-B*40:02 [6] (setting [9]) worked out at 20 nM; with HLA-B*40:01 [2] (setting [9]) it was 174 nM; in the experiment with HLA-B*45:01 [3] (setting [9]) it was 37 nM; with HLA-B*44:03 (setting [9]), 480 nM; in the experiment with HLA-B*44:02 (setting [9]), 638 nM; with HLA-B*18:01 [4] (setting [9]), 757 nM.
With WEFVNTPPL, the Kd in the experiment with HLA-B*45:01 [5] (setting [10]) worked out at 5210 nM. For the same sequence, the IC50 in the experiment with HLA-B*40:02 [6] (setting [10]) was 8.6 nM; with HLA-B*40:01 [2] (setting [10]), 2.5 nM; with HLA-B*44:03 (setting [10]) it was 378 nM; with HLA-B*44:02 (setting [10]), 72 nM; with HLA-B*18:01 [4] (setting [10]), 5.9 nM.
Consider SENERGYYI, for which the IC50 in the experiment with HLA-B*40:02 [6] (setting [9]) worked out at 227 nM; in the experiment with HLA-B*40:01 [2] (setting [9]) it was 3730 nM; in the experiment with HLA-B*45:01 [3] (setting [9]), 336 nM; with HLA-B*44:03 (setting [9]), 91 nM; in the experiment with HLA-B*44:02 (setting [9]), 150 nM; with HLA-B*18:01 [4] (setting [9]) it was 301 nM.
With AEAALENLV, the IC50 was 107 nM with HLA-B*40:02 [6] (setting [12]), 245 nM in the experiment with HLA-B*40:01 [2] (setting [12]), 35 nM with HLA-B*45:01 [3] (setting [12]) and 309 nM with HLA-B*44:03 (setting [12]).
As to DEFKPIVQY, the concentration for half-maximal inhibition (IC50) was determined as 401 nM with HLA-B*44:03 (setting [9]), 12 nM in the experiment with HLA-B*44:02 (setting [9]) and 3.9 nM with HLA-B*18:01 [4] (setting [9]).
As for TERQANFL, in the experiment with HLA-B*45:01 [5] (setting [10]), the Kd came to 9720 nM. Further, the IC50 in the experiment with HLA-B*40:02 [6] (setting [10]) came to 23 nM; in the experiment with HLA-B*40:01 [2] (setting [10]), 223 nM; in the experiment with HLA-B*44:03 (setting [10]), 2210 nM; with HLA-B*44:02 (setting [10]) it was 9050 nM; with HLA-B*18:01 [4] (setting [10]) it was 304 nM.
Take DEVDLYLLM: the IC50 is 1020 nM in the experiment with HLA-B*40:02 [6] (setting [9]); 2920 nM in the experiment with HLA-B*40:01 [2] (setting [9]); 84 nM with HLA-B*44:03 (setting [9]); 107 nM with HLA-B*44:02 (setting [9]); 17 nM with HLA-B*18:01 [4] (setting [9]).
For the sequence NETPGIRYQY, in the experiment with HLA-B*45:01 [5] (setting [10]), the equilibrium dissociation constant (Kd) came out at 10600 nM. The half-inhibitory concentration (IC50) in the experiment with HLA-B*40:02 [6] (setting [10]) was at least 20000 nM; in the experiment with HLA-B*40:01 [2] (setting [10]), at least 20000 nM; in the experiment with HLA-B*44:03 (setting [10]), 62 nM; in the experiment with HLA-B*44:02 (setting [10]), 75 nM; with HLA-B*18:01 [4] (setting [10]), 179 nM.
With AELLAACFA, in the experiment with HLA-B*18:01 [8], the Kd was found to be 13500 nM. The IC50 stood at 50 nM in the experiment with HLA-B*40:02 [6] (setting [11]); 585 nM with HLA-B*40:01 [2] (setting [11]); 6.6 nM in the experiment with HLA-B*45:01 [3] (setting [11]); 59 nM with HLA-B*44:03 (setting [11]); 332 nM in the experiment with HLA-B*44:02 (setting [11]).

Values taken from the Immune Epitope Database (IEDB).
